Assay results published in patent US20250290928A1, “METHOD, KIT AND DEVICE FOR DETECTING EXTRACELLULAR VESICLES” (priority 2022, published 2025).
*: point of attachment. 5FAM = O=C1OC2(c3ccc(O)cc3Oc3cc(O)ccc32)c2ccc(C(=O)*)cc21; TQ2 = quencher

Assays:
[1] = target: T1, MMP14 in the A549-derived extracellular vesicles (Homo sapiens, UniProt P50281); assay: Evaluation of MMP14 activity of A549-derived extracellular vesicles with 96-well plate; type: biochemical; conditions: Example 21, buffer (4), reporter 5 μM, 37° C.
T1 construct: host or cells: A549 (purified exosomes)
Protocol: The MMP14 activity was evaluated with a 96-well plate (manufactured by Thermo Fisher Scientific Inc., model number: 137101). A fluorescence intensity was measured with a fluorescence plate reader (Synergy MX, manufactured by BioTek Instruments, Inc.) at […] every 5 min for 1 hour. For measurement wavelengths, an excitation wavelength of 485±20 nm and a fluorescence wavelength of 528±20 nm were used.
With regard to the COLO201-derived extracellular vesicles, the concentration of the solution was set to x1/10, and 3-fold serial dilution was performed to prepare standard samples with three concentrations.
50 μL of the MMP14 detection solution was added to 50 μL of each of the samples, a reaction was performed at 37° C., and MMP14 activity was evaluated.
The concentration of the solution is 20 μg/mL. […] The concentration of the solution was set to x1, and 10-fold serial dilution was performed to prepare standard samples with five concentrations.
The concentration of the solution is 10 μg/mL.
Evaluation was performed in the same manner as in Example 1 except that the reaction temperature was set to 23° C. ΔRFU was calculated by subtracting the measured value of the sample for BG measurement from the measured value of each of the samples.

[2] = target: T2, MMP14 in the MDA-MB-231-derived extracellular vesicles (Homo sapiens, UniProt P50281); assay: Digital detection through MMP14 activity of MDA-MB-231-derived extracellular vesicles captured on Tim4-immobilized magnetic particles; type: biochemical; conditions: for Particle Expected value λ / Particle Number of positives / Particle Positive ratio: Table 52, particles modified with Tim4; for Particle Expected value λ / Particle Number of positives / Particle Positive ratio / Particle Expected value Δλ / Particle Δ Number of positives / Particle Δ Positive ratio: 4 hr; for Particle Expected value Δλ / Particle Δ Number of positives / Particle Δ Positive ratio: Table 53, BG subtracted
T2 construct: in terms of intact MMP14 with a molecular weight of 70 kDa
Protocol: Magnetic particles included in PS Capture (trademark) Exosome Flow Cytometry Kit (manufactured by FUJIFILM Corporation) were used as magnetic particles. In this kit, binding of an extracellular vesicle to a Tim4-immobilized magnetic particle is utilized.
800 μL of Exosome Capture Beads were aliquoted in a 1.5 mL microtube, vortexed for 5 seconds, spun down in a benchtop centrifuge, and then placed on a magnetic stand. After still standing for 1 minute, the supernatant was removed by pipetting. 1 mL of x1 WB (+Enhancer) prepared from x10 Washing Buffer and x100 Exosome Binding Enhancer included in the kit was added to the residue, the mixture was vortexed for 5 seconds, spun down in a benchtop centrifuge, and then placed on a magnetic stand. After still standing for 1 minute, the supernatant was removed by pipetting. This operation was repeated three times.
800 μL of the buffer (4) was added to the magnetic particle pellets, and the mixture was vortexed for 30 seconds to provide a homogeneous magnetic particle suspension. 60 μL of the suspension was aliquoted into each of twelve 1.5 mL microtubes.
The concentration of the solution is 4 μg/mL. […] Further, the concentration of the x1/5 solution was set to be the highest concentration, and 10-fold dilution was performed in four stages. Thus, 10-fold dilution samples in a total of five stages were obtained.
The magnetic particle suspension that had been aliquoted in each amount of 60 μL in the section “(Preparation of Particles)” was vortexed for 5 seconds, spun down in a benchtop centrifuge, and then placed on a magnetic stand. After still standing for 1 minute, the supernatant was removed by pipetting.
After that, the above-mentioned mixed solution was spun down in a benchtop centrifuge, then placed on a magnetic stand, and left to stand still for 1 minute. After that, the supernatant was removed by pipetting, 300 μL of the buffer (4) was added to the residue, and the mixture was vortexed for 5 seconds. The mixture was spun down in a benchtop centrifuge, then placed on a magnetic stand, and left to stand still for 1 minute. The same operation was further repeated twice.
For detection of MMP14 activity, 1 mM Custom #1 and Custom #2 were diluted with the buffer (4) to prepare MMP14 detection solutions containing 5 μM Custom #1 and Custom #2, respectively.
The supernatant of the mixed solution of the magnetic particles and the extracellular vesicles subjected to the washing was removed by pipetting, and 60 μL of each of the MMP14 detection solutions was added to each of the magnetic particle pellets to prepare a reaction solution for wells.
Magnosphere (trademark) MS300/Streptavidin (manufactured by JSR Corporation) (hereinafter abbreviated as “MS300S”) was used as magnetic particles. The magnetic particles were modified with Tim4 through use of Biotin-labeled Exosome Capture included in MagCapture (trademark) Exosome Isolation Kit PS Ver. 2 (manufactured by FUJIFILM Corporation) (hereinafter abbreviated as “PS2”) to prepare Tim4-immobilized magnetic particles.
10 μL of Biotin-labeled Exosome Capture was added to the suspension, and the mixture was vortexed for 5 seconds so that the contents were mixed. The mixture was subjected to a reaction for 10 minutes while the contents were mixed by inversion at room temperature with a rotator. After that, the resultant was spun down in a benchtop centrifuge, and then placed on a magnetic stand. After still standing for 1 minute, the supernatant was removed by pipetting. 500 μL of x1 I/WB (±Enhancer) was added to the residue, and the mixture was vortexed for 5 seconds, spun down in a benchtop centrifuge, and then placed on a magnetic stand. After still standing for 1 minute, the supernatant was removed by pipetting. This operation was further repeated twice. […]

[3] = Example 49, PS Capture Tim4 particles, 30° C., 4 h

[5-FAM]GRIGFLRTAK(TQ2)[OH] (5FAM-GRIGFLRTAK(TQ2)-OH) [Custom #1]
extracellular vesicle concentration at which MMP14 activity was able to be detected with a 96-well plate [1]: ≥ 10 µg/mL | number of the extracellular vesicles ([2]; Example 49, 6×10^5 particles, 3 μg of protein at x1): 1.04×10^6 | expected value Δλ per particle (value obtained by subtracting BG) at a concentration of x1 [2, 3]: 1.7373 | number of the extracellular vesicles [2, 3]: 3.47×10^5 /μg of protein | Particle Expected value λ ([2]; MB231 concentration x1/5): 0.831 | Particle Number of positives ([2]; MB231 concentration x1/5): 1,240 | Particle Positive ratio ([2]; MB231 concentration x1/5): 0.5644 | Particle Expected value λ ([2]; MB231 concentration x1/50): 0.06966 | Particle Number of positives ([2]; MB231 concentration x1/50): 165 | Particle Positive ratio ([2]; MB231 concentration x1/50): 0.06729 | Particle Expected value λ ([2]; MB231 concentration x1/500): 0.03312 | Particle Number of positives ([2]; MB231 concentration x1/500): 89 | Particle Positive ratio ([2]; MB231 concentration x1/500): 0.03258 | Particle Expected value λ ([2]; MB231 concentration x1/5,000): 0.01344 | Particle Number of positives ([2]; MB231 concentration x1/5,000): 41 | Particle Positive ratio ([2]; MB231 concentration x1/5,000): 0.01335 | Particle Expected value λ ([2]; MB231 concentration x1/50,000): 0.01169 | Particle Number of positives ([2]; MB231 concentration x1/50,000): 30 | Particle Positive ratio ([2]; MB231 concentration x1/50,000): 0.01162 | Particle Expected value Δλ ([2]; MB231 concentration x1/50): 0.05749 | Particle Δ Number of positives ([2]; MB231 concentration x1/50): 137 | Particle Δ Positive ratio ([2]; MB231 concentration x1/50): 0.05587 | Particle Expected value Δλ ([2]; MB231 concentration x1/500): 0.02258 | Particle Δ Number of positives ([2]; MB231 concentration x1/500): 61 | Particle Δ Positive ratio ([2]; MB231 concentration x1/500): 0.02233 | Particle Expected value Δλ ([2]; MB231 concentration x1/5,000): 0.00424 | Particle Δ Number of positives ([2]; MB231 concentration x1/5,000): 13 | Particle Δ Positive ratio ([2]; MB231 concentration x1/5,000): 0.00423 | Particle Expected value Δλ ([2]; MB231 concentration x1/50,000): 0.00078 | Particle Δ Number of positives ([2]; MB231 concentration x1/50,000): 2 | Particle Δ Positive ratio ([2]; MB231 concentration x1/50,000): 0.00077 | Particle Expected value Δλ ([2]; MB231 concentration x1): 0.8022 | Particle Δ Number of positives ([2]; MB231 concentration x1): 1,212 | Particle Δ Positive ratio ([2]; MB231 concentration x1): 0.5517
